Experimental data as given in the supplement of paper PMC10567573.
± gives the standard deviation.

Experiment: protein stability index of a GFP-peptide fusion (GPS, HEK-293T) (PSI 1-6); higher = more stable
Conditions: c terminus: a fixed tail appended
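Also: 24-mer peptide tiles fused after GFP, lentivirally expressed, FACS-sorted into six equal bins by GFP/DsRed ratio, decoded by Illumina sequencing, PSI is the read-weighted mean bin number.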

| Sequence | protein stability index (treatment: DMSO) | protein stability index (treatment: MLN4924 1 uM, 8 h) |
| --- | --- | --- |
| KHWVYVKRGGNCPAPAPLVPQDPD [ZBTB22] | 3.32 ± 0.48 | 3.56 ± 0.43 |
| GVIATKQFSRGDFVVEYHGDLIEI [KMT5A] | 2.37 ± 0.31 | 1.68 ± 0.17 |
| FDQLKQFLTFDKQVLRFYAIWDDT [EFHC1] | 2.31 ± 0.2 | 2.13 ± 0.33 |
| ANQKLSEKLAAGALPHINARGPVR [CCDC3] | 3.62 ± 0.43 | 3.86 ± 0.77 |
| QVLVKDFTFEGFSRLRFLNLGRMI [ZER1] | 2.07 ± 0.22 | 2.08 ± 0.23 |
| DDSGKDKKKKTKKIKEKYIDQEEL [HSP90AB1] | 5.39 ± 0.29 | 5.37 ± 0.32 |
| VDPIGHVYIFATCLGLSYDGLLGD [MAGEA6] | 3.17 ± 0.45 | 3.1 ± 0.29 |
| EAFTLMDQNRDGFIDKEDLKDTYA [MYL5] | 4.69 ± 0.25 | 4.88 ± 0.11 |
| EVRKLTQRLEEMTQRMEALENRLR [MATN2] | 2.57 ± 0.39 | 2.91 ± 0.4 |
| EPGPRPALQPSPSIRLPLDAPLPG [TBC1D10A] | 4.97 ± 0.28 | 5.06 ± 0.26 |
| LLPEDMALRNLPPLRAAHRRFNFD [SMG5] | 3.06 ± 0.38 | 3.2 ± 0.33 |
| RMLTDKEREMAEIRDQMQQQLNDY [LMNB1] | 4.93 ± 0.3 | 5.08 ± 0.19 |
| YLVENNANISIANKYDNTCLMIAA [FEM1B] | 2.38 ± 0.1 | 2.21 ± 0.22 |
| GGGDEDGSLGSRAEPAPRAREGGG [SMAD6] | 5.55 ± 0.17 | 5.51 ± 0.4 |
| KLEERFMTLAANHELMLRFKDEYK [CCDC89] | 2.99 ± 0.28 | 2.99 ± 0.43 |
| LKTKDGKLPFCAMGVSSVIHPKNP [CPOX] | 3.17 ± 0.34 | 3.17 ± 0.51 |
| WATRKPPAPKSTYECRCIGEEKEM [TIA1] | 2.98 ± 0.44 | 3.4 ± 0.58 |
| EVPTAAGALTPTPAPTTTTATREE [CLPTM1] | 5.42 ± 0.27 | 5.44 ± 0.39 |
| SIEYDSEPFGKERDAAIKKLATEA [CRY1] | 5.18 ± 0.14 | 4.87 ± 0.7 |

| Sequence | protein stability index (treatment: DMSO) | protein stability index (treatment: MLN4924 1 uM, 8 h) |
| --- | --- | --- |
| GGGMRVCGFGGGAGSVFGGGFGGG [KRT15] | 2.03 ± 0.33 | 1.94 ± 0.24 |
| TQRQYKEDESQSEEENDYRNLDAS [CEP70] | 5.41 ± 0.25 | 5.51 ± 0.6 |
| LDLFGVSMVVPLLSLHVKSLGASP [MFSD9] | 2.81 ± 0.62 | 3.02 ± 0.17 |
| TTIEDEDAKARKQEIIKTTEQLIE [CAMK2B] | 5.14 ± 0.22 | 5.32 ± 0.24 |
| FRDPIWSTWALYGRAVDQDKVLRF [MYORG] | 2.12 ± 0.39 | 2.11 ± 0.15 |
| SDNSGQVSPPESPTVTTSWQSESL [BCL2L13] | 5.13 ± 0.2 | 5.02 ± 0.23 |
| SFCLEDTECEGDIQKNYECANFGD [LOXL2] | 5.14 ± 0.14 | 5.33 ± 0.2 |
| DYLPLTALVDGQIFCLHGGLSPSI [PPP2CA] | 2.58 ± 0.93 | 2.21 ± 0.41 |
| DDVRLLCHLTPSIYTEFPDETLRS [INTS3] | 3.41 ± 0.2 | 3.49 ± 0.54 |
| FLDILRRADKNDDGKLSFEEFKAY [NECAB1] | 2.83 ± 0.23 | 2.93 ± 0.34 |
| QSSFNSLQRVPSYDSFDSEDYPAA [ETS1] | 4.92 ± 0.28 | 4.93 ± 0.21 |
| GIAILVGSNDRVQGVISQLEDTCK [TRIM55] | 2.3 ± 0.15 | 2.43 ± 0.37 |
| PQTVGVGRARFTTYEVRMRTNLPI [SNX12] | 2.61 ± 0.22 | 2.6 ± 0.34 |
| EDGKTCRRKDVCQAIDHGCEHICV [MATN2] | 3.82 ± 0.2 | 4.24 ± 0.28 |
| VVCRQLGLGFASNAFQETWYWHGD [LOXL2] | 2.55 ± 0.55 | 2.42 ± 0.31 |
| GIGHKVDAVFMKDGFFYFFHGTRQ [MMP1] | 2.4 ± 0.94 | 2.13 ± 0.23 |
| RFTAESYTVLGDTLIDGGEHYWEV [FSD1] | 2.23 ± 0.3 | 2.5 ± 0.43 |
| LDRLKVLMQVHASRSNNMGIVGGF [SLC25A25] | 2.25 ± 0.7 | 2.1 ± 0.36 |
| LVTLPVSFAQLKNLKWLDLKDNPL [LRRC59] | 2.29 ± 0.082 | 2.31 ± 0.23 |
